Among the data in patent US20100119450A1 (published 2010) are Kd values, retold here.

Test [1] deals with T1, amyloid-β peptide Aβ1-40 (wild-type) (UniProt P05067 672-711).
T1 construct: domain: Aβ1-40; Soluble monomeric synthetic peptide; used 125I-labeled as tracer in capillary and in vivo studies; also called Aβ40; wild-type Aβ1-40
As to the kind of experiment: SPR (BIACORE X), LRP-1 cluster immobilized on CM5 chip, Aβ in solution; apparent Kd from koff/kon. On the procedure:
(§1) Incubation conditions as described under Materials and Methods. […] Apparent affinity constants K_{d(app)} were deduced from the ratios of k_{off(app)}/kₒₙ₍ₐₚₚ₎ as described under Materials and Methods. […] K_{d(app)} (mean±SD) values were determined from 6 to 9 different concentrations of Aβ and 3 to 5 independent measurements at each concentration.
(§2) (as described in Westein et al., 2002). […] Ligand solution was replaced with buffer to initiate dissociation. The data were analyzed to calculate apparent association rate constants kₒₙ₍ₐₚₚ₎ and apparent dissociation rate constants k_{off(app)} using a single-site binding model (as described in Westein et al., 2002). Apparent affinity constants K_{d(app)} were inferred from the ratio k_{off(app)}/kₒₙ₍ₐₚₚ₎. Data are based on three to five measurements using six to nine different concentrations for each measurement. Data are presented as the mean±SEM. Analysis was performed using BIACORE X biosensor system (Uppsala, Sweden) and BIA evaluation 3.0 software (Biocore, Sweden).

Test [2] addresses T2, amyloid-β peptide Aβ1-42 (wild-type) (UniProt P05067 672-713).
T2 construct: domain: Aβ1-42; Synthetic peptide; also called Aβ42
The description is as above. On the procedure: as §1, §2

B1: recombinant LRP-1 fragment encompassing cluster II (receptor, UniProt Q07954 805-1184, looked up)
chain: NKCRVNNGGCSSLCLATPGSRQCACAEDQVLDADGVTCLANPSYVPPPQCQPGEFACANSRCIQERWKCDGDNDCLDNSDEAPALCHQHTCPSDRFKCENNRCIPNRWLCDGDNDCGNSEDESNATCSARTCPPNQFSCASGRCIPISWTCDLDDDCGDRSDESASCAYPTCFPLTQFTCNNGRCININWRCDNDNDCGDNSDEAGCSHSCSSTQFKCNSGRCIPEHWTCDGDNDCGDYSDETHANCTNQATRPPGGCHTDEFQCRLDGLCIPLRWRCDGDTDCMDSSDEKSCEGVTHVCDPSVKFGCKDSARCISKAWVCDGDNDCEDNSDEENCESLACRPPSHPCANNTSVCLPPDKLCDGNDDCGDGSDEGELCDQ
notes: domain: cluster II; Produced in stably transfected baby hamster kidney cells as described in Westein et al., 2002; immobilized on CM5 chip; also called LRP-1 cluster II; LRP-1 II
Take B1: the Kd in test [1] was determined as 0.57 nM; in test [2], 3 nM.

B2: recombinant LRP-1 fragment encompassing cluster IV (receptor)
chain: not shown
notes: domain: cluster IV; Produced in stably transfected baby hamster kidney cells as described in Westein et al., 2002; immobilized on CM5 chip; also called LRP-1 cluster IV; LRP-1 IV
Turning to B2, the Kd in test [1] came to 1.24 nM; in test [2] it was 10.1 nM.
